Assay results published in paper PMC2719339.

What was measured:
[1] = biological target: thiostrepton resistance RNA methyltransferase (Tsr) (Streptomyces azureus) (UniProt P18644); test: SEC
[2] = biological target: thiostrepton resistance RNA methyltransferase (Tsr) (Streptomyces azureus) (UniProt P18644); test: native gel or EMSA

In the case of “thiostrepton resistance RNA methyltransferase (Tsr) (from UniProt P18644 1-269) (enzyme)”, the stoichiometry N [1] is reported as 2 and the stoichiometry N [2] is reported as 2.
